These results are taken from patent publication USRE47150 (Bayer, dated 2018).

For assay [1], the target named is T1, human tissue factor pathway inhibitor (TFPI) (human, UniProt P10646 29-304, limits assumed).
T1 construct: bought; also called hTFPI; human TFPI
T1 sequence (looked up): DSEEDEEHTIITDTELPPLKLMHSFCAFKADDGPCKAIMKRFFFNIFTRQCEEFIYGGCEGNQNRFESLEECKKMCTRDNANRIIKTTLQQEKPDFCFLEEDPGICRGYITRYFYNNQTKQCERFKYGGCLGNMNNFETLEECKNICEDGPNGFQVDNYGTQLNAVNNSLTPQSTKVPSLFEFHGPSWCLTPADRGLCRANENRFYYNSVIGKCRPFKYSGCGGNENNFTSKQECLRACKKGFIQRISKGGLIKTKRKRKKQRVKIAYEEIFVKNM
The assay is described as follows: competitive ELISA. On the technique in general: In an ELISA, binding on a coated surface is turned into a signal by an enzyme label.

Assay [2] has as its target T2, mouse tissue factor pathway inhibitor (TFPI) (mouse, UniProt O54819 29-289, limits assumed).
T2 construct: bought; also called mTFPI; murine TFPI
T2 sequence (looked up): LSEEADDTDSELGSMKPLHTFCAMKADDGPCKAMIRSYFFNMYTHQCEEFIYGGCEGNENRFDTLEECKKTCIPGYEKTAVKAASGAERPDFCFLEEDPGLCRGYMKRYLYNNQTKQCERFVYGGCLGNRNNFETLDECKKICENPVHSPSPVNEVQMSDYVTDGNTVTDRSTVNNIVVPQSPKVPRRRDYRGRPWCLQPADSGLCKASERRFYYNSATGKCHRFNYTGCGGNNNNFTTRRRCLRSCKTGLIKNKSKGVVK
As to the kind of experiment: competitive ELISA.

B1: 4B7 HC N32D+D62R+Y112D/LC M4L+S32R+D33F+N35I+D97T (Fab, V domains shown)
VH: QVQLQQSGPGLVKPSQTLSLTCAISGDSVSSDSAAWSWIRQSPGRGLEWLGIIYKRSKWYNRYAVSVKSRITINPDTSKNQFSLQLNSVTPEDTAVYYCARWHSDKHWGFDDWGQGTLVTVSS
VL: DIVLTQSPLSLPVTPGEPASISCRSSQSLVFRFGITYLNWYLQKPGQSPQLLIYKGSNRASGVPDRFSGSGSGTDFTLKISRVEAEDVGVYYCQQYTSYPLTFGQGTKVEIKR
Turning to B1, the variant/HC_D62R in assay [1] was determined as 21.3 ratio; in assay [2], 23.9 ratio.

B2: 4B7 HC N32D+D62R+Y112D/LC S32R+D33F+N35I+A60D+D97T (Fab, V domains shown)
VH: QVQLQQSGPGLVKPSQTLSLTCAISGDSVSSDSAAWSWIRQSPGRGLEWLGIIYKRSKWYNRYAVSVKSRITINPDTSKNQFSLQLNSVTPEDTAVYYCARWHSDKHWGFDDWGQGTLVTVSS
VL: DIVMTQSPLSLPVTPGEPASISCRSSQSLVFRFGITYLNWYLQKPGQSPQLLIYKGSNRDSGVPDRFSGSGSGTDFTLKISRVEAEDVGVYYCQQYTSYPLTFGQGTKVEIKR
Regarding B2, the variant/HC_D62R in assay [1] was 19.1 ratio; in assay [2] it was 14.3 ratio.

B3: 4B7 HC N32D+G44S+D62R+Y112D/LC S32R+D33F+N35I+D97T (Fab, V domains shown)
VH: QVQLQQSGPGLVKPSQTLSLTCAISGDSVSSDSAAWSWIRQSPSRGLEWLGIIYKRSKWYNRYAVSVKSRITINPDTSKNQFSLQLNSVTPEDTAVYYCARWHSDKHWGFDDWGQGTLVTVSS
VL: DIVMTQSPLSLPVTPGEPASISCRSSQSLVFRFGITYLNWYLQKPGQSPQLLIYKGSNRASGVPDRFSGSGSGTDFTLKISRVEAEDVGVYYCQQYTSYPLTFGQGTKVEIKR
Turning to B3, the results for the variant/HC_D62R in assay [1] and in assay [2] were 26.5 ratio and 41.5 ratio, respectively.

B4: 4B7 HC N32D+D62R+Y112D/LC V30L+S32R+N35I+T36N (Fab, V domains shown)
VH: QVQLQQSGPGLVKPSQTLSLTCAISGDSVSSDSAAWSWIRQSPGRGLEWLGIIYKRSKWYNRYAVSVKSRITINPDTSKNQFSLQLNSVTPEDTAVYYCARWHSDKHWGFDDWGQGTLVTVSS
VL: DIVMTQSPLSLPVTPGEPASISCRSSQSLLFRDGINYLNWYLQKPGQSPQLLIYKGSNRASGVPDRFSGSGSGTDFTLKISRVEAEDVGVYYCQQYDSYPLTFGQGTKVEIKR
In the case of B4, the variant/HC_D62R was 25 ratio in assay [1] and 7 ratio in assay [2].

B5: 4B7 HC N32D+D62R+Y112D/LC S32R+D33F+N35I+N39D+D97T (Fab, V domains shown)
VH: QVQLQQSGPGLVKPSQTLSLTCAISGDSVSSDSAAWSWIRQSPGRGLEWLGIIYKRSKWYNRYAVSVKSRITINPDTSKNQFSLQLNSVTPEDTAVYYCARWHSDKHWGFDDWGQGTLVTVSS
VL: DIVMTQSPLSLPVTPGEPASISCRSSQSLVFRFGITYLDWYLQKPGQSPQLLIYKGSNRASGVPDRFSGSGSGTDFTLKISRVEAEDVGVYYCQQYTSYPLTFGQGTKVEIKR
B5 displayed a variant/HC_D62R in assay [1] of 1.3 ratio. Further, the binding result in assay [2] was “no binding”.

B6: 4B7 HC N32D+D62R+Y112D/LC V30L+S32R+D33F+N35I+T36N+D97T (Fab, V domains shown)
VH: QVQLQQSGPGLVKPSQTLSLTCAISGDSVSSDSAAWSWIRQSPGRGLEWLGIIYKRSKWYNRYAVSVKSRITINPDTSKNQFSLQLNSVTPEDTAVYYCARWHSDKHWGFDDWGQGTLVTVSS
VL: DIVMTQSPLSLPVTPGEPASISCRSSQSLLFRFGINYLNWYLQKPGQSPQLLIYKGSNRASGVPDRFSGSGSGTDFTLKISRVEAEDVGVYYCQQYTSYPLTFGQGTKVEIKR
B6: the variant/HC_D62R came to 23.9 ratio in assay [1] and 28.4 ratio in assay [2].

B7: 4B7 HC N32D+D62R+Y112D/LC S32R+D33F+N35I+T36N+D97T (Fab, V domains shown)
VH: QVQLQQSGPGLVKPSQTLSLTCAISGDSVSSDSAAWSWIRQSPGRGLEWLGIIYKRSKWYNRYAVSVKSRITINPDTSKNQFSLQLNSVTPEDTAVYYCARWHSDKHWGFDDWGQGTLVTVSS
VL: DIVMTQSPLSLPVTPGEPASISCRSSQSLVFRFGINYLNWYLQKPGQSPQLLIYKGSNRASGVPDRFSGSGSGTDFTLKISRVEAEDVGVYYCQQYTSYPLTFGQGTKVEIKR
In the case of B7, the variant/HC_D62R in assay [1] was found to be 25.2 ratio; in assay [2] it was 35.4 ratio.

B8: 4B7 HC N32D+D62R+Y112D/LC S32R+D33F+N35I+L51R+D97T (Fab, V domains shown)
VH: QVQLQQSGPGLVKPSQTLSLTCAISGDSVSSDSAAWSWIRQSPGRGLEWLGIIYKRSKWYNRYAVSVKSRITINPDTSKNQFSLQLNSVTPEDTAVYYCARWHSDKHWGFDDWGQGTLVTVSS
VL: DIVMTQSPLSLPVTPGEPASISCRSSQSLVFRFGITYLNWYLQKPGQSPQRLIYKGSNRASGVPDRFSGSGSGTDFTLKISRVEAEDVGVYYCQQYTSYPLTFGQGTKVEIKR
With B8, the variant/HC_D62R in assay [1] stood at 11.2 ratio; in assay [2], 5.2 ratio.

B9: 4B7 HC N32D+D62R+Y112D/LC V30L+S32R+D33F+N35I+D97T (Fab, V domains shown)
VH: QVQLQQSGPGLVKPSQTLSLTCAISGDSVSSDSAAWSWIRQSPGRGLEWLGIIYKRSKWYNRYAVSVKSRITINPDTSKNQFSLQLNSVTPEDTAVYYCARWHSDKHWGFDDWGQGTLVTVSS
VL: DIVMTQSPLSLPVTPGEPASISCRSSQSLLFRFGITYLNWYLQKPGQSPQLLIYKGSNRASGVPDRFSGSGSGTDFTLKISRVEAEDVGVYYCQQYTSYPLTFGQGTKVEIKR
Regarding B9, the values for the variant/HC_D62R in assay [1] and in assay [2] were 26.1 ratio and 42.2 ratio, respectively.

B10: 4B7 HC N32D+D62R+Y112D/LC S32R+D33F+N35I+L42Q+D97T (Fab, V domains shown)
VH: QVQLQQSGPGLVKPSQTLSLTCAISGDSVSSDSAAWSWIRQSPGRGLEWLGIIYKRSKWYNRYAVSVKSRITINPDTSKNQFSLQLNSVTPEDTAVYYCARWHSDKHWGFDDWGQGTLVTVSS
VL: DIVMTQSPLSLPVTPGEPASISCRSSQSLVFRFGITYLNWYQQKPGQSPQLLIYKGSNRASGVPDRFSGSGSGTDFTLKISRVEAEDVGVYYCQQYTSYPLTFGQGTKVEIKR
On to B10, for which the variant/HC_D62R in assay [1] stood at 26.9 ratio; in assay [2], 43 ratio.

B11: 4B7 HC N32D+D62R+Y112D/LC S32R+D33F+N35I+D97T+S98H (Fab, V domains shown)
VH: QVQLQQSGPGLVKPSQTLSLTCAISGDSVSSDSAAWSWIRQSPGRGLEWLGIIYKRSKWYNRYAVSVKSRITINPDTSKNQFSLQLNSVTPEDTAVYYCARWHSDKHWGFDDWGQGTLVTVSS
VL: DIVMTQSPLSLPVTPGEPASISCRSSQSLVFRFGITYLNWYLQKPGQSPQLLIYKGSNRASGVPDRFSGSGSGTDFTLKISRVEAEDVGVYYCQQYTHYPLTFGQGTKVEIKR
With B11, the variant/HC_D62R in assay [1] was 17.9 ratio; in assay [2], 7.1 ratio.

B12: 4B7 HC N32D+D62R+Y112D/LC S32R+D33F+N35I+K55L+D97T (Fab, V domains shown)
VH: QVQLQQSGPGLVKPSQTLSLTCAISGDSVSSDSAAWSWIRQSPGRGLEWLGIIYKRSKWYNRYAVSVKSRITINPDTSKNQFSLQLNSVTPEDTAVYYCARWHSDKHWGFDDWGQGTLVTVSS
VL: DIVMTQSPLSLPVTPGEPASISCRSSQSLVFRFGITYLNWYLQKPGQSPQLLIYLGSNRASGVPDRFSGSGSGTDFTLKISRVEAEDVGVYYCQQYTSYPLTFGQGTKVEIKR
B12 displayed a variant/HC_D62R in assay [1] of 7.8 ratio. Also, the binding result in assay [2] is “no binding”.

B13: 4B7 HC N32D+D62S+H107M+Y112D/LC S32R+D33R+N35T (Fab, V domains shown)
VH: QVQLQQSGPGLVKPSQTLSLTCAISGDSVSSDSAAWSWIRQSPGRGLEWLGIIYKRSKWYNSYAVSVKSRITINPDTSKNQFSLQLNSVTPEDTAVYYCARWHSDKMWGFDDWGQGTLVTVSS
VL: DIVMTQSPLSLPVTPGEPASISCRSSQSLVFRRGTTYLNWYLQKPGQSPQLLIYKGSNRASGVPDRFSGSGSGTDFTLKISRVEAEDVGVYYCQQYDSYPLTFGQGTKVEIKR
In the case of B13, the variant/HC_D62R in assay [1] came to 19.6 ratio; in assay [2], 20.3 ratio.

B14: 4B7 HC N32D+D62R+Y112D/LC S32R+D33R (Fab, V domains shown)
VH: QVQLQQSGPGLVKPSQTLSLTCAISGDSVSSDSAAWSWIRQSPGRGLEWLGIIYKRSKWYNRYAVSVKSRITINPDTSKNQFSLQLNSVTPEDTAVYYCARWHSDKHWGFDDWGQGTLVTVSS
VL: DIVMTQSPLSLPVTPGEPASISCRSSQSLVFRRGNTYLNWYLQKPGQSPQLLIYKGSNRASGVPDRFSGSGSGTDFTLKISRVEAEDVGVYYCQQYDSYPLTFGQGTKVEIKR
For B14, the variant/HC_D62R in assay [1] worked out at 14.8 ratio; in assay [2], 7.2 ratio.

B15: 4B7 HC N32D+D62R+Y112D/LC S32R+D33F+N35I+K44R+D97T (Fab, V domains shown)
VH: QVQLQQSGPGLVKPSQTLSLTCAISGDSVSSDSAAWSWIRQSPGRGLEWLGIIYKRSKWYNRYAVSVKSRITINPDTSKNQFSLQLNSVTPEDTAVYYCARWHSDKHWGFDDWGQGTLVTVSS
VL: DIVMTQSPLSLPVTPGEPASISCRSSQSLVFRFGITYLNWYLQRPGQSPQLLIYKGSNRASGVPDRFSGSGSGTDFTLKISRVEAEDVGVYYCQQYTSYPLTFGQGTKVEIKR
Take B15: the variant/HC_D62R in assay [1] was determined as 26 ratio; in assay [2], 40.1 ratio.

B16: 4B7 HC N32D+D62R+Y112D/LC S32R+D33F+N35I+G56V+D97T (Fab, V domains shown)
VH: QVQLQQSGPGLVKPSQTLSLTCAISGDSVSSDSAAWSWIRQSPGRGLEWLGIIYKRSKWYNRYAVSVKSRITINPDTSKNQFSLQLNSVTPEDTAVYYCARWHSDKHWGFDDWGQGTLVTVSS
VL: DIVMTQSPLSLPVTPGEPASISCRSSQSLVFRFGITYLNWYLQKPGQSPQLLIYKVSNRASGVPDRFSGSGSGTDFTLKISRVEAEDVGVYYCQQYTSYPLTFGQGTKVEIKR
For B16, the variant/HC_D62R in assay [1] amounted to 12.1 ratio. Besides, the binding result in assay [2] was “no binding”.

B17: 4B7 HC N32D+D62R+Y112D/LC S32R+D33F+N35I+Q50R+D97T (Fab, V domains shown)
VH: QVQLQQSGPGLVKPSQTLSLTCAISGDSVSSDSAAWSWIRQSPGRGLEWLGIIYKRSKWYNRYAVSVKSRITINPDTSKNQFSLQLNSVTPEDTAVYYCARWHSDKHWGFDDWGQGTLVTVSS
VL: DIVMTQSPLSLPVTPGEPASISCRSSQSLVFRFGITYLNWYLQKPGQSPRLLIYKGSNRASGVPDRFSGSGSGTDFTLKISRVEAEDVGVYYCQQYTSYPLTFGQGTKVEIKR
In the case of B17, the variant/HC_D62R in assay [1] came out at 25.9 ratio; in assay [2] it was 39.4 ratio.
